Test results as given in US7109167.
Blank lines part the entries; values can stand above or below the binder they belong to. Positions of bridges follow the written chain, without caps; N, C: chain ends. No end group written: not given here.

Experiments:
[1] = target: endothelial cell receptor for TKPPR on human aortic endothelial cells (HAEC); assay: fluorescent beads on confluent HAEC, static, Experiment 1, image analysis
[2] = target: endothelial cell receptor for TKPPR on human aortic endothelial cells (HAEC); assay: beads perfused over HAEC in a parallel plate flow cell, 1.53 dynes/cm^2
[3] = target: endothelial cell receptor for TKPPR on human aortic endothelial cells (HAEC); assay: competition on HAEC: tuftsin 100 µM against 1% BRU-114 bubbles
[4] = target: endothelial cell receptor for TKPPR on human aortic endothelial cells (HAEC); assay: competition on HAEC: tuftsin 10 µM against 1% BRU-114 bubbles
[5] = target: endothelial cell receptor for TKPPR on human aortic endothelial cells (HAEC); assay: competition on HAEC: tuftsin 5 µM against 1% BRU-114 bubbles
[6] = target: endothelial cell receptor for TKPPR on human aortic endothelial cells (HAEC); assay: competition on HAEC: tuftsin 50 µM against 1% BRU-114 bubbles
[7] = target: endothelial cell receptor for TKPPR on human aortic endothelial cells (HAEC); assay: competition on HAEC: tuftsin 25 µM against 1% BRU-114 bubbles
[8] = target: endothelial cell receptor for TKPPR on human aortic endothelial cells (HAEC); assay: competition on HAEC: free TKPPR 10 µM against 1% BRU-114 bubbles, average of two
[9] = target: endothelial cell receptor for TKPPR on human aortic endothelial cells (HAEC); assay: competition on HAEC: free TKPPR 10 µM against TKPPR-beads, average n = 11
[10] = target: endothelial cell receptor for TKPPR on human aortic endothelial cells (HAEC); assay: competition on HAEC: free TKPPR 50 µM against 1% BRU-114 bubbles
[11] = target: endothelial cell receptor for TKPPR on human aortic endothelial cells (HAEC); assay: competition on HAEC: free TKPPR 10 µM against 1% BRU-114 bubbles
[12] = target: endothelial cell receptor for TKPPR on human aortic endothelial cells (HAEC); assay: competition on HAEC: free TKPPR 50 µM against TKPPR-beads, average n = 11
[13] = target: endothelial cell receptor for TKPPR on human aortic endothelial cells (HAEC); assay: competition on HAEC: free TKPPR 25 µM against 1% BRU-292 bubbles, average of two
[14] = target: endothelial cell receptor for TKPPR on human aortic endothelial cells (HAEC); assay: competition on HAEC: free TKPPR (head: 10 µmol; text: 10 µM) against 1% BRU-114 bubbles
[15] = target: endothelial cell receptor for TKPPR on human aortic endothelial cells (HAEC); assay: competition on HAEC: free TKPPR 100 µM against 1% BRU-114 bubbles
[16] = target: endothelial cell receptor for TKPPR on human aortic endothelial cells (HAEC); assay: competition on HAEC: free TKPPR 500 µM against TKPPR-beads, average n = 11
[17] = target: endothelial cell receptor for TKPPR on human aortic endothelial cells (HAEC); assay: competition on HAEC: free TKPPR 25 µM against TKPPR-beads, average n = 11
[18] = target: endothelial cell receptor for TKPPR on human aortic endothelial cells (HAEC); assay: competition on HAEC: free TKPPR (head: 10 µmol; text: 10 µM) against 5% BRU-114 bubbles
[19] = target: endothelial cell receptor for TKPPR on human aortic endothelial cells (HAEC); assay: competition on HAEC: free TKPPR 50 µM against 1% BRU-292 bubbles, average of two
[20] = target: endothelial cell receptor for TKPPR on human aortic endothelial cells (HAEC); assay: competition on HAEC: free TKPPR 25 µM against 2% BRU-114 bubbles
[21] = target: endothelial cell receptor for TKPPR on human aortic endothelial cells (HAEC); assay: competition on HAEC: free TKPPR 200 µM against 10% BRU-114 bubbles
[22] = target: endothelial cell receptor for TKPPR on human aortic endothelial cells (HAEC); assay: competition on HAEC: free TKPPR 10 µM against 5% BRU-114 bubbles
[23] = target: endothelial cell receptor for TKPPR on human aortic endothelial cells (HAEC); assay: competition on HAEC: free TKPPR 200 µM against 1% BRU-114 bubbles
[24] = target: endothelial cell receptor for TKPPR on human aortic endothelial cells (HAEC); assay: competition on HAEC: free TKPPR 10 µM against 10% BRU-114 bubbles
[25] = target: endothelial cell receptor for TKPPR on human aortic endothelial cells (HAEC); assay: competition on HAEC: free TKPPR (head: 100 µmol; text: 100 µM) against 5% BRU-114 bubbles
[26] = target: endothelial cell receptor for TKPPR on human aortic endothelial cells (HAEC); assay: competition on HAEC: free TKPPR 5 µM against 1% BRU-114 bubbles
[27] = target: endothelial cell receptor for TKPPR on human aortic endothelial cells (HAEC); assay: competition on HAEC: free TKPPR 25 µM against 1% BRU-114 bubbles, average of two
[28] = target: endothelial cell receptor for TKPPR on human aortic endothelial cells (HAEC); assay: competition on HAEC: free TKPPR 100 µM against TKPPR-beads, average n = 11
VEGF receptors on HUVECs = assay: competition of 125I-VEGF binding to HUVECs
[29] = target: endothelial cell receptor for TKPPR on human aortic endothelial cells (HAEC); assay: competition on HAEC: free TKPPR 100 µM against 5% BRU-114 bubbles
[30] = target: endothelial cell receptor for TKPPR on human aortic endothelial cells (HAEC); assay: competition on HAEC: free TKPPR 50 µM against 10% BRU-114 bubbles
[31] = target: endothelial cell receptor for TKPPR on human aortic endothelial cells (HAEC); assay: competition on HAEC: free TKPPR (head: 100 µmol; text: 100 µM) against 1% BRU-114 bubbles
[32] = target: endothelial cell receptor for TKPPR on human aortic endothelial cells (HAEC); assay: competition on HAEC: free TKPPR 2.5 µM against 1% BRU-114 bubbles, average of two
[33] = target: endothelial cell receptor for TKPPR on human aortic endothelial cells (HAEC); assay: competition on HAEC: free TKPPR 200 µM against 5% BRU-114 bubbles
[34] = target: endothelial cell receptor for TKPPR on human aortic endothelial cells (HAEC); assay: competition on HAEC: free TKPPR 200 µM against TKPPR-beads, average n = 11
[35] = target: endothelial cell receptor for TKPPR on human aortic endothelial cells (HAEC); assay: competition on HAEC: free TKPPR 25 µM against 1% BRU-114 bubbles
[36] = target: endothelial cell receptor for TKPPR on human aortic endothelial cells (HAEC); assay: competition on HAEC: free TKPPR 2.5 µM against 1% BRU-292 bubbles, average of two
[37] = target: endothelial cell receptor for TKPPR on human aortic endothelial cells (HAEC); assay: competition on HAEC: free TKPPR 50 µM against 1% BRU-114 bubbles, average of two
[38] = target: endothelial cell receptor for TKPPR on human aortic endothelial cells (HAEC); assay: competition on HAEC: free TKPPR 50 µM against 5% BRU-114 bubbles
[39] = target: endothelial cell receptor for TKPPR on human aortic endothelial cells (HAEC); assay: competition on HAEC: free TKPPR 100 µM against 10% BRU-114 bubbles
[40] = target: receptor for TKPPR on rabbit aortic endothelial cells (RAEC); assay: competition on RAEC: free TKPPR 100 µM against 5% BRU-114 bubbles
[41] = target: endothelial cell receptor for TKPPR on human aortic endothelial cells (HAEC); assay: competition on HAEC: free TKPPR 10 µM against 1% BRU-292 bubbles, average of two
[42] = target: endothelial cell receptor for TKPPR on human aortic endothelial cells (HAEC); assay: competition on HAEC: BRU-306 50 µM against 2% BRU-114 bubbles
[43] = target: endothelial cell receptor for TKPPR on human aortic endothelial cells (HAEC); assay: competition on HAEC: BRU-306 100 µM against 2% BRU-114 bubbles
[44] = target: endothelial cell receptor for TKPPR on human aortic endothelial cells (HAEC); assay: competition on HAEC: BRU-306 200 µM against 2% BRU-114 bubbles
[45] = target: endothelial cell receptor for TKPPR on human aortic endothelial cells (HAEC); assay: competition on HAEC: BRU-305 200 µM against 2% BRU-114 bubbles
[46] = target: endothelial cell receptor for TKPPR on human aortic endothelial cells (HAEC); assay: competition on HAEC: BRU-305 100 µM against 2% BRU-114 bubbles
[47] = target: endothelial cell receptor for TKPPR on human aortic endothelial cells (HAEC); assay: competition on HAEC: BRU-305 50 µM against 2% BRU-114 bubbles

Integrated density of bound beads (arbitrary units) [1]: 28.6
B1: GRGDSP-conjugated fluorescent microspheres (peptide)
peptide: GRGDSP
modifications: also: coupled by EDAC to carboxylate-modified microspheres

Integrated density of bound beads (arbitrary units) [1]: 230
beads bound at 1.53 dynes/cm^2 [2]: 86 beads
B2: TKPPR-conjugated red fluorescent microspheres (peptide)
peptide: TKPPR
modifications: also: coupled by EDAC to carboxylate-modified microspheres

Bubbles Bound [3]: 556 bubbles
Bubbles Bound [4]: 976 bubbles
Bubbles Bound [5]: 1150 bubbles
Bubbles Bound [6]: 904 bubbles
Bubbles Bound [7]: 1170 bubbles
B3: Tuftsin (TKPR) (peptide)
peptide: TKPR

Bubbles Bound-BRU-114 Formulation [8]: 535 bubbles
% Inhibition [9]: 30.8%
Average % Inhibition [10]: 92.7%
Bubbles Bound [10]: 56 bubbles
Bubbles Bound-1% [10]: 5 bubbles
% inhibition of bubble binding [11]: 82.7%
Average % Inhibition [11]: 79.6%
Bubbles Bound [11]: 528 bubbles
Bubbles Bound-1% [11]: 10 bubbles
% Inhibition [12]: 50.5%
Bubbles Bound-BRU-292 Formulation [13]: 718 bubbles
Bubbles Bound [14]: 96 bubbles
Average % Inhibition [15]: 93.7%
Bubbles Bound [15]: 17 bubbles
Bubbles Bound-1% [15]: 4 bubbles
% Inhibition [16]: 70.6%
% Inhibition [17]: 50.7%
Bubbles Bound [18]: 865 bubbles
Bubbles Bound-BRU-292 Formulation [19]: 462 bubbles
Bubbles Bound % [20]: 16 % of control
Bubbles Bound-10% [21]: 66 bubbles
% more bubbles bound than without competitor [22]: 19%
Bubbles Bound-5% [22]: 1340 bubbles
Bubbles Bound-1% [23]: 4 bubbles
Bubbles Bound-10% [24]: 1090 bubbles
Bubbles Bound [25]: 62 bubbles
Average % Inhibition [26]: 45.7%
Bubbles Bound [26]: 790 bubbles
Bubbles Bound-BRU-114 Formulation [27]: 75 bubbles
% Inhibition [28]: 62%
IC50 (VEGF receptors on HUVECs): 250 µM
Bubbles Bound-5% [29]: 12 bubbles
HAEC bubbles bound [29]: 58 bubbles
Bubbles Bound-10% [30]: 857 bubbles
Bubbles Bound [31]: 5 bubbles
Bubbles Bound-BRU-114 Formulation [32]: 1240 bubbles
Bubbles Bound-5% [33]: 13 bubbles
% Inhibition [34]: 72.2%
Average % Inhibition [35]: 82%
Bubbles Bound [35]: 106 bubbles
Bubbles Bound-BRU-292 Formulation [36]: 888 bubbles
Bubbles Bound-BRU-114 Formulation [37]: 9 bubbles
Bubbles Bound-5% [38]: 440 bubbles
Bubbles Bound-10% [39]: 399 bubbles
RAEC bubbles bound [40]: 21 bubbles
Bubbles Bound-BRU-292 Formulation [41]: 833 bubbles
B4: TKPPR (L-threonyl-L-lysyl-L-prolyl-L-prolyl-L-arginine), free monomeric peptide (peptide)
peptide: TKPPR-OH

Bubbles Bound % [42]: 97 % of control
Bubbles Bound % [43]: 71 % of control
Bubbles Bound % [44]: 99 % of control
B5: Cyclic disulfide CTKPPRC (BRU-306) (peptide)
peptide: CTKPPRC-OH
modifications: disulfide 1-7 (inferred)

Bubbles Bound % [45]: 88 % of control
Bubbles Bound % [46]: 78 % of control
Bubbles Bound % [47]: 97 % of control
B6: Linear CTKPPRC (BRU-305) (peptide)
peptide: CTKPPRC

IC50 (VEGF receptors on HUVECs): 10 µM
B7: TKPPR tetramer BRU-326, OG-(TKPPR)4 (peptide)
peptide: TKPPR-OH
modifications: not fully specified (N-terminus); printed as OG-(TKPPR)4; also: tetramer: four TKPPR chains joined via branched tetra-acid scaffold
